US9150638B2, “Factor XII inhibitors for treating interstitial lung disease” (Justus-Liebig-Universität Giessen, priority 2010, dated 2015)

Key:
FXII [1] = test: TGF-β1-induced FXII expression in HLF; assay type: cell-based, human; settings: for FXII expression in response to TGF-β1 (Western blot): HLF treated with inhibitor 1 h prior to TGF-β1 for 48 h
Description: Human lung specimens of the pulmonary parenchyma and mouse lungs were chopped into <1 mm^3 pieces. The minced pieces were washed twice with PBS and then plated in 100-mm dishes (Greiner-bio-one, Frickenhausen, Germany). The specimens were cultured with Dulbecco's modified Eagle's medium (DMEM; Invitrogen, Karlsruhe, Germany) supplemented with 10% fetal calf serum (FCS; HyClone, South Logan, UT), and 1% penicillin/streptomycin (Invitrogen) in humidified atmosphere of 5% CO2 at 37° C. Purity of isolated fibroblasts was verified by positive staining for vimentin, fibronectin and collagen IV. All experiments were carried out with lung fibroblasts from passages 3-4. The mouse NIH3T3 fibroblasts were cultured in DMEM supplemented with 10% FCS, and 1% penicillin/streptomycin in humidified atmosphere of 5% CO2 at 37° C.
(§1) Proteins separated on SDS polyacrylamide gel were transferred to a PVDF membrane (Amersham Biosciences, Freiburg, Germany) using wet transfer technique in transfer buffer (25 mM Tris, 192 mM Glycine, 20% (v/v) Methanol) for 1 h at 100V. After blocking with 5% non-fat dry milk in tris-buffered saline (TBS; 25 mM Tris-Cl, 150 mM NaCl, pH 7.5) containing 0.1% (v/v) Tween 20 (TBS-T), the membranes were incubated at 4° C. overnight with appropriate primary antibody diluted in 1% BSA in TBS-T. After 1 h incubation with peroxidase-labelled secondary antibody (all from Dako, Gostrup, Denmark) proteins were detected using ECL Plus Kit (Amersham Biosciences, Freiburg, Germany). To determine the amounts of protein loaded on the gel, blots were in 1 hour (stripping buffer: 100 mM Glycine, 1% HCl) and reprobed using an anti-β-actin or appropriate anti-pan antibody.
Pre-designed, commercially available siRNA sequences directed against human Smad 3 (Dharmacon, Chicago, Ill.), human JNK1 (Abnova, Heidelberg, Germany), and an universal negative-control siRNA (Ambion, Austin, Tex.) were employed. Cells were treated with siRNA (250 nM each) using the X-treme Gene siRNA Transfection Reagent (Roche). The siRNA-mediated downregulation of the target genes was assessed 72 h after transfection by Western blotting.

murine lung fibroblasts = test: Proliferation assay, [3H]-thymidine incorporation after FXIIa stimulation; assay type: cell-based; settings: for FXIIa-induced proliferation ([3H]-thymidine incorporation): added or preincubated 1-2 hours before FXIIa, 10.0 μM PD98059, 5 μM SP600125, 0.7 μM Wortmannin, 3 μM SB203580, blocking antibodies 5 μg/ml
Description: Human lung specimens of the pulmonary parenchyma and mouse lungs were chopped into <1 mm^3 pieces. The minced pieces were washed twice with PBS and then plated in 100-mm dishes (Greiner-bio-one, Frickenhausen, Germany). The specimens were cultured with Dulbecco's modified Eagle's medium (DMEM; Invitrogen, Karlsruhe, Germany) supplemented with 10% fetal calf serum (FCS; HyClone, South Logan, UT), and 1% penicillin/streptomycin (Invitrogen) in humidified atmosphere of 5% CO2 at 37° C. Purity of isolated fibroblasts was verified by positive staining for vimentin, fibronectin and collagen IV. All experiments were carried out with lung fibroblasts from passages 3-4. The mouse NIH3T3 fibroblasts were cultured in DMEM supplemented with 10% FCS, and 1% penicillin/streptomycin in humidified atmosphere of 5% CO2 at 37° C. The primary murine lung fibroblasts were seeded in 48-well plates and starved in serum free DMEM (Dulbecco's Modified Eagle's Medium) for 24 hours prior to FXIIa (American Diagnostica, Stamford, Conn.) stimulation. In some experiments cells were preincubated with 5 μg/ml anti-uPAR (R&D Systems, Wiesbaden, Germany), anti-β1-integrin or anti-α5-integrin (both from Millipore, Billerica, Mass.) blocking antibodies 1-2 hours before exposure to FXIIa. In addition in some experiment 10.0 μM PD98059, 5 μM SP600125, 0.7 μM Wortmannin, 3 μM SB203580 (all from Calbiochem, Darmstadt, Germany) were added to the cell culture medium 1-2 hours prior to the addition of FXIIa. Cells were treated with 3-9 μg/ml FXIIa alone or in the presence of its specific inhibitors: Corn Trypsin Inhibitor ([…]-chloromethylketone (PCK, Bachem, Weil am Rhein, Germany) or uPAR synthetic peptides. After 24-36 hours the cells were exposed to [3H]Thymidine (0.2 μCi per well) for 6-12 hours, rinsed three times with PBS and solubilized with 0.2 ml 0.5M sodium hydroxide. 0.1 ml of the solubilized material was quantified by liquid scintillation counting (TRI-CARB® 1500, A Canbera Company, Meriden, Conn.). [^3H]Thymidine incorporation was expressed as absolute radioactivity (counts per minute per well).

cyclin D1 = test: Immunoblot of cyclin D1 expression after FXIIa stimulation; assay type: cell-based, murine; settings: 6 hours after 6 μg/ml FXIIa stimulation
Description: as §1

FXII [2] = biological target: T1, FXII (Homo sapiens, UniProt P00748); test: FXII activity assay using chromogenic substrate, BALF from IPF patients; assay type: biochemical
T1 construct: increased enzymatic activity FXII in broncholaveolar lavage fluid (BALF) from IPF patients; from tissue; host or cells: bronchoalveolar lavage fluid (BALF) of IPF patients and donors
T1 sequence (P00748 20-615): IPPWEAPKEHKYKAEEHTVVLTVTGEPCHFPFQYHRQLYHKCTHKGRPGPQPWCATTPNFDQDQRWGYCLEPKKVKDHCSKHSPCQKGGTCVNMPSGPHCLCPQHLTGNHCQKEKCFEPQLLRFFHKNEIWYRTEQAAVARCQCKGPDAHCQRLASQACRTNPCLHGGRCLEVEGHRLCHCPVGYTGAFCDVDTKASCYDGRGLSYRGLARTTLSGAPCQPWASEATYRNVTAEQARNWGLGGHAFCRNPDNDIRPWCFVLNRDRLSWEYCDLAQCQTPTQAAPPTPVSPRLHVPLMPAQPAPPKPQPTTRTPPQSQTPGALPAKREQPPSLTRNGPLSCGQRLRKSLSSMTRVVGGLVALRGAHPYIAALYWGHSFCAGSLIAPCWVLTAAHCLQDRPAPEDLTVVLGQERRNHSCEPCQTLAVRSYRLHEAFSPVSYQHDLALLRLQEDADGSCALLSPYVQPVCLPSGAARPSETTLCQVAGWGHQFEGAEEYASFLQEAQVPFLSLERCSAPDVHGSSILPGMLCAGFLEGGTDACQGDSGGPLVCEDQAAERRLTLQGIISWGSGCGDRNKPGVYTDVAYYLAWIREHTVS
Source text: A test for determining the catalytic activity of FXIIa is described in Kannemeier C, Shibamiya A, Nakazawa F, Trusheim H, Ruppert C, Markart P, Song Y, Tzima E, Kennerknecht E, Niepmann M, Bruehl M L, Sedding D, Massberg S, Gunther A, Engelmann B, Preissner K T. Extracellular RNA constitutes a natural procoagulant cofactor in blood coagulation. Proc Natl Acad Sci USA. 104:6388-6393, 2007. Briefly, the FXIIa-sample and a chromogenic substrate peptide is mixed, and the release of p-nitroanilin is followed over time in a photometer at 405 nm. A compound is suitable as an inhibitor of the catalytic, in particular the enzymatic activity of FXIIa if it is capable of reducing the catalytic activity in that assay in a significant manner, preferably by at least 10%, more preferably by at least 25%, most preferably by at least 50% such as at least 75% or even at least 90%.

p44/42 = test: Western blot of p44/42 phosphorylation after FXIIa exposure; assay type: cell-based, murine; settings: after 30 min of FXIIa exposure
Description: as §1

Akt = test: Western blot of Akt phosphorylation after FXIIa exposure; assay type: cell-based, murine; settings: after 30 min of FXIIa exposure
Description: as §1

[3] = system: bleomycin induced lung fibrosis; test: Bleomycin induced lung fibrosis in mice with intratracheal CTI
Source text: Male mice weighing between 20-22 g were used in all experiments. Animals were kept according to NIH guidelines and experiments were undertaken with permission of local authorities. The animals were anesthetized by intraperitoneal injection of a mixture of ketamine hydrochloride and xylazine hydrochloride. Bleomycin in dosis 5U/kg body weight was given as aerosol. For bleomycin delivery, animals were orotracheally intubated and mechanically ventilated. A microsprayer (Penn-Century Inc, Philadelphia, Pa.) was filled with 100 μl of saline solution containing bleomycin, introduced into the tracheal cannula, positioned slightly above the carina and aerosol generation was achieved under end-expiratory breath arrest by rapidly emptying the syringe. Controls mice received vehicle only (0.9% saline). 5 mg/kg CTI and 8 mg/kg PCK, both diluted in 0.9% saline, were administrated intratracheally on day 9, 12, 15 and 18 in dosis or of mouse body weight, respectively. The mice were sacrificed after 21 days post application (if not indicated in the text) with a lethal dose of ketamine and xylazine.
Mice were tracheotomised and ventilated in a volume driven mode at a positive end-expiratory pressure of 0 kPa. Respiration rate was set at 20 breaths·min^−1 and ventilation pressure was recorded while inflating the lung at a tidal volume of 200 μL.
After sacrifice of animals, the chest was opened and the lungs were flushed via a catheter that was placed into the pulmonary artery with PBS buffer. Once the effluent was clear of blood, lungs were removed and placed in paraformaldehyde or nitrogen for further examination. For cells isolation lungs were placed in PBS buffer.
Paraffin-embedded, formalin-fixed lung tissue was sectioned at 5 microns and processed for immunohistochemical staining using appropriate primary antibody and ZytoChem Plus AP-Fast Red Kit according to the manufacturer's instructions (Zytomed Systems, Berlin, Germany). Negative controls were obtained in all cases by omitting the primary antibody.

[4] = FIG. 25D,E, bleomycin application
[5] = day 21 after bleomycin, CTI 5 mg/kg intratracheally
[6] = saline control animals which received CTI

TGF-β1: cytokine (R&D Systems) used at 10 ng/ml to stimulate cells
synthesis of FXII in HLF (FXII [1]; exposure to 10 ng/ml TGF-β1): stimulated the synthesis of FXII in a time dependent manner

C[S+]([O-])c1ccc(-c2nc(-c3ccncc3)c(-c3ccc(F)cc3)[nH]2)cc1 (stereo not drawn) [SB203580, reference compound]
FXIIa-induced proliferation ([3H]-thymidine incorporation) (murine lung fibroblasts): No change in DNA sythesis | FXII expression in response to TGF-β1 (Western blot) (FXII [1]): No change in FXII expression

COc1cccc(-c2cc(=O)c3ccccc3o2)c1N [PD98059, reference compound]
FXIIa-induced proliferation ([3H]-thymidine incorporation) (murine lung fibroblasts): reduction of murine lung fibroblasts proliferation | FXII expression in response to TGF-β1 (Western blot) (FXII [1]): No change in FXII expression

B1: FXIIa: activated factor XII (American Diagnostica) used to stimulate fibroblasts (protein)
chain: T1 sequence (P00748 20-615)
DNA synthesis ([3H]-thymidine incorporation) after FXIIa treatment (murine lung fibroblasts; increasing concentration of FXIIa): dose-dependent increase | cyclin D expression (cyclin D1): increased

B2: CTI: Corn Trypsin Inhibitor, a specific FXII activity inhibitor (Calbiochem) (protein)
chain: SAGTSCVPGWAIPHNPLPSCRWYVTSRTCGIGPRLPWPELKRRCCRELADIPAYCRCTALSILMDGAIPPGPDAQLEGRLEDLPGCPREVQRGFAATLVTEAECNLATIS
FXII activity (chromogenic substrate) (FXII [2]): blockade of FXII activity | FXIIa-induced proliferation ([3H]-thymidine incorporation) (murine lung fibroblasts): blocked | p44/42 phosphorylation (p44/42): attenuated | Akt phosphorylation (Akt): attenuated | lung remodelling and collagen deposition ([3]; FIG. 25A, bleomycin-treated mice): largely protected against lung remodelling and collagen deposition | survival curves (Kaplan-Meier plot) ([3]; FIG. 25B, bleomycin-treated mice): significantly protected | increase in collagen content [3, 4]: significantly prevented | increase in septum thickness [3, 4]: significantly prevented | collagen accumulation (Masson-Trichrom staining) [3, 5]: markedly reduced | histologic findings in the lungs (fibrotic lesions) [3, 5]: less fibrotic lesions | lung compliance ([3]; day 21 after bleomycin, CTI 5 mg/kg intratracheally at day 9, 12, 15 and 18): significantly improved | mortality ([3]; day 21 post bleomycin challenge, CTI 5 mg/kg intratracheally at day 9, 12, 15 and 18): 20% | histological changes in the lung [3, 6]: no histological changes in the lung | inflammatory cells infiltration into airspaces [3, 6]: mild degree of inflammatory cells infiltration into airspaces
